Tested on: Escherichia coli TOP10
Assay: shrunken log2 fold change of peptide-encoding DNA abundance (4.5 h post-induction vs induction); higher = less antimicrobial activity (less host growth inhibition)
Settings: time post-induction: 4.5 h; library: site-saturation at positions 5, 18, 19, 20
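Also: peptides expressed intracellularly from a pBAD plasmid library in pooled LB shake-flask culture, induced with 0.3% L-arabinose, DNA abundance read by NGS, three biological replicates, DESeq2 with apeglm shrinkage.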

RRIRFRPPRLPRPRPRPSTTPRP and RRIRFRPPRLPRPRPRPSTVPRP are within 0.2 log units of each other in “shrunken log2 fold change” value: -0.362 for the first, -0.325 for the second.

Compared with RRIRFRPPRLPRPRPRPSVCPRP, RRIRFRPPRLPRPRPRPSVGPRP is lower in “shrunken log2 fold change” value: -0.16 for the first, -0.453 for the second.

Going from RRIRFRPPRLPRPRPRPSYCPRP to RRIRFRPPRLPRPRPRPSYLPRP, the “shrunken log2 fold change” value falls from -0.345 to -0.736.

Compared with RRIRFRPPRLPRPRPRPSYTPRP, RRIRFRPPRLPRPRPRPTCNPRP is higher in “shrunken log2 fold change” value: -0.771 for the first, -0.178 for the second.

RRIRFRPPRLPRPRPRPTDGPRP and RRIRFRPPRLPRPRPRPTDLPRP are within 0.2 log units of each other in “shrunken log2 fold change” value: 0.0745 for the first, 0.15 for the second.

Compared with RRIRFRPPRLPRPRPRPTDYPRP, RRIRFRPPRLPRPRPRPTEGPRP is higher in “shrunken log2 fold change” value: -0.578 for the first, -0.289 for the second.

RRIRFRPPRLPRPRPRPTEMPRP and RRIRFRPPRLPRPRPRPTFGPRP are within 0.2 log units of each other in “shrunken log2 fold change” value: -0.105 for the first, 0.0623 for the second.

First: RRIRFRPPRLPRPRPRPTGAPRP
Second: RRIRFRPPRLPRPRPRPTGEPRP
The “shrunken log2 fold change” value of the first is lower: 0.257 for the first, 0.583 for the second.

Compared with RRIRFRPPRLPRPRPRPTGIPRP, RRIRFRPPRLPRPRPRPTGKPRP is higher in “shrunken log2 fold change” value: -0.26 for the first, 0.205 for the second.

RRIRFRPPRLPRPRPRPTHEPRP and RRIRFRPPRLPRPRPRPTHVPRP are within 0.2 log units of each other in “shrunken log2 fold change” value: 0.171 for the first, 0.119 for the second.

RRIRFRPPRLPRPRPRPTHYPRP and RRIRFRPPRLPRPRPRPTIGPRP are within 0.2 log units of each other in “shrunken log2 fold change” value: -0.0275 for the first, -0.0631 for the second.

Going from RRIRFRPPRLPRPRPRPTKKPRP to RRIRFRPPRLPRPRPRPTKRPRP, the “shrunken log2 fold change” value rises from -0.0226 to 0.269.

Going from RRIRFRPPRLPRPRPRPTLRPRP to RRIRFRPPRLPRPRPRPTMEPRP, the “shrunken log2 fold change” value falls from 0.0831 to -0.266.

Compared with RRIRFRPPRLPRPRPRPTMTPRP, RRIRFRPPRLPRPRPRPTNHPRP is lower in “shrunken log2 fold change” value: -0.0114 for the first, -0.536 for the second.

Going from RRIRFRPPRLPRPRPRPTPQPRP to RRIRFRPPRLPRPRPRPTPRPRP, the “shrunken log2 fold change” value rises from 0.366 to 0.803.

RRIRFRPPRLPRPRPRPTQEPRP and RRIRFRPPRLPRPRPRPTRCPRP are within 0.2 log units of each other in “shrunken log2 fold change” value: 0.321 for the first, 0.299 for the second.

Going from RRIRFRPPRLPRPRPRPTTRPRP to RRIRFRPPRLPRPRPRPTVCPRP, the “shrunken log2 fold change” value falls from 0.177 to -0.0464.

Compared with RRIRFRPPRLPRPRPRPTWIPRP, RRIRFRPPRLPRPRPRPTYWPRP is higher in “shrunken log2 fold change” value: -0.222 for the first, 0.385 for the second.

RRIRFRPPRLPRPRPRPVANPRP and RRIRFRPPRLPRPRPRPVHKPRP are within 0.2 log units of each other in “shrunken log2 fold change” value: -0.1 for the first, -0.142 for the second.

Going from RRIRFRPPRLPRPRPRPVIGPRP to RRIRFRPPRLPRPRPRPVILPRP, the “shrunken log2 fold change” value falls from -0.234 to -1.

First: RRIRFRPPRLPRPRPRPVLAPRP
Second: RRIRFRPPRLPRPRPRPVLMPRP
The “shrunken log2 fold change” value of the first is higher: 0.239 for the first, -0.13 for the second.

First: RRIRFRPPRLPRPRPRPVPKPRP
Second: RRIRFRPPRLPRPRPRPVPMPRP
The “shrunken log2 fold change” value of the first is lower: -0.208 for the first, 0.108 for the second.

Going from RRIRFRPPRLPRPRPRPVPPPRP to RRIRFRPPRLPRPRPRPVQRPRP, the “shrunken log2 fold change” value falls from 0.46 to -0.072.

Going from RRIRFRPPRLPRPRPRPVRKPRP to RRIRFRPPRLPRPRPRPVRNPRP, the “shrunken log2 fold change” value rises from -0.355 to 0.077.

RRIRFRPPRLPRPRPRPVSMPRP and RRIRFRPPRLPRPRPRPVTEPRP are within 0.2 log units of each other in “shrunken log2 fold change” value: 0.174 for the first, -0.0132 for the second.

Going from RRIRFRPPRLPRPRPRPVWPPRP to RRIRFRPPRLPRPRPRPVYAPRP, the “shrunken log2 fold change” value falls from 0.263 to -0.444.

Compared with RRIRFRPPRLPRPRPRPVYQPRP, RRIRFRPPRLPRPRPRPVYVPRP is lower in “shrunken log2 fold change” value: -0.0402 for the first, -0.93 for the second.

RRIRFRPPRLPRPRPRPWEFPRP and RRIRFRPPRLPRPRPRPWENPRP are within 0.2 log units of each other in “shrunken log2 fold change” value: -0.12 for the first, -0.0884 for the second.

RRIRFRPPRLPRPRPRPWHCPRP and RRIRFRPPRLPRPRPRPWIMPRP are within 0.2 log units of each other in “shrunken log2 fold change” value: -0.028 for the first, -0.206 for the second.

Going from RRIRFRPPRLPRPRPRPWMPPRP to RRIRFRPPRLPRPRPRPWMSPRP, the “shrunken log2 fold change” value rises from -0.25 to -0.0139.

First: RRIRFRPPRLPRPRPRPWPRPRP
Second: RRIRFRPPRLPRPRPRPWQYPRP
The “shrunken log2 fold change” value of the first is higher: 0.626 for the first, 0.0191 for the second.

Going from RRIRFRPPRLPRPRPRPWTAPRP to RRIRFRPPRLPRPRPRPYANPRP, the “shrunken log2 fold change” value falls from -0.283 to -1.28.

First: RRIRFRPPRLPRPRPRPYAYPRP
Second: RRIRFRPPRLPRPRPRPYCIPRP
The “shrunken log2 fold change” value of the first is higher: -0.0128 for the first, -0.597 for the second.

Compared with RRIRFRPPRLPRPRPRPYDDPRP, RRIRFRPPRLPRPRPRPYDKPRP is lower in “shrunken log2 fold change” value: -0.0579 for the first, -0.374 for the second.

RRIRFRPPRLPRPRPRPYDRPRP and RRIRFRPPRLPRPRPRPYECPRP are within 0.2 log units of each other in “shrunken log2 fold change” value: -0.0252 for the first, -0.0179 for the second.

Compared with RRIRFRPPRLPRPRPRPYFQPRP, RRIRFRPPRLPRPRPRPYGPPRP is higher in “shrunken log2 fold change” value: -1.44 for the first, -0.266 for the second.

Going from RRIRFRPPRLPRPRPRPYHFPRP to RRIRFRPPRLPRPRPRPYINPRP, the “shrunken log2 fold change” value falls from -0.194 to -0.647.

For RRIRFRPPRLPRPRPRPYIRPRP, the “shrunken log2 fold change” value was -0.755.
